± gives the standard deviation of the averaged measurements.
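Also: PSI is a weighted mean of sequencing reads over stability bins, variants kept only with over 10 reads, mCherry proximal and sfGFP distal, peptide attached via GGGS linker.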

The subject of this data set is Saccharomyces cerevisiae. In words: protein stability index of tFT-peptide fusion (C-terminal peptide) (PSI (0-1 scale)); higher = more stable (slower turnover). Conditions: genetic background: wild type; temperature: 30 C.
For THPPSFHPSRAP, the protein stability index is 0.693 ± 0.092.

For THSLCIKPRTVV, the protein stability index came out at 0.517 ± 0.0056.

THSTLRRFSGYS: the protein stability index is 0.7005 ± 0.001.

TIIEHYMMINEK showed a protein stability index of 0.692 ± 0.064.

As for TILPWCLFLVAD, the protein stability index worked out at 0.6 ± 0.0098.

With TISRIQTNINKK, the protein stability index was 0.742 ± 0.18.

For the sequence TKEFKKTNTTGY, the protein stability index was 0.7406 ± 0.0039.

The sequence TKFKPKILEKCT yielded a protein stability index of 0.686 ± 0.021.

TKIKETTKKKQL had a protein stability index of 0.522 ± 0.059.

Take TKKKKKEKGDST: the protein stability index worked out at 0.702 ± 0.1.

Consider TKQKKIEDEEII, for which the protein stability index turned out to be 0.6314 ± 0.0017.

The sequence TKSQGGLTWASC showed a protein stability index of 0.626 ± 0.011.

With TLAKSSQNLMCV, the protein stability index worked out at 0.744 ± 0.085.

In the case of TLAPPLPPPPLV, the protein stability index amounted to 0.731 ± 0.013.

For TLAPVRAFVEFR, the protein stability index was found to be 0.656 ± 0.022.

TLCLPPPVAWQH had a protein stability index of 0.6544 ± 0.0047.

The sequence TLDNEKKKKRNT showed a protein stability index of 0.674 ± 0.022.

Turning to TLDTCVPGANTF, the protein stability index came out at 0.7127 ± 0.001.

In turn, TLGGEITYKVKT displayed a protein stability index of 0.684 ± 0.034.

The sequence TLRRYSFTKKNL gave a protein stability index of 0.737 ± 0.069.

For the sequence TLRVQNKRKSEE, the protein stability index was determined as 0.663 ± 0.028.

In the case of TLSLILPQLPPL, the protein stability index was found to be 0.643 ± 0.071.

As for TLSPGYTFPLSL, the protein stability index was 0.743 ± 0.023.

Sequence TLTDCRKKCGRV came in with a protein stability index of 0.715 ± 0.097.

Sequence TLTPPPSTSLPP gave a protein stability index of 0.645 ± 0.067.

In turn, TLTSPFGSPTWD displayed a protein stability index of 0.638 ± 0.31.

TLYHWELEPRNP had a protein stability index of 0.664 ± 0.013.

As to TLYLCALPALSR, the protein stability index came to 0.615 ± 0.0075.

As to TNARDPPGPTPH, the protein stability index was 0.586 ± 0.06.

TNFGALNFDYAC gave a protein stability index of 0.772 ± 0.028.

Sequence TNFSRCFLFRSW gave a protein stability index of 0.629 ± 0.025.

Regarding TNILMHGHKRSC, the protein stability index was 0.676 ± 0.13.

In turn, TNRIRGTARKVK showed a protein stability index of 0.67 ± 0.055.

TNSKLTKERTEI displayed a protein stability index of 0.699 ± 0.049.

Sequence TNSVGCRIGGKQ showed a protein stability index of 0.646 ± 0.02.

TNTRKIINMEKQ showed a protein stability index of 0.717 ± 0.077.

In the case of TNVPVLTLMVYL, the protein stability index was 0.591 ± 0.089.

TPASCHQFGYQH: the protein stability index was found to be 0.695 ± 0.026.

Regarding TPASPSPPPRPP, the protein stability index is 0.625 ± 0.019.

TPGDAVICSFYI registered a protein stability index of 0.642 ± 0.015.

TPGGDPLAPRQS: the protein stability index was 0.641 ± 0.061.

In turn, TPKETGNNNMPN came in with a protein stability index of 0.677 ± 0.09.

On to TPMGFSRFLLSL, for which the protein stability index is 0.553 ± 0.03.

The sequence TPPFPSPLPPPS displayed a protein stability index of 0.753 ± 0.013.

TPPLCAPPLPPP returned a protein stability index of 0.7022 ± 0.0054.

Turning to TPPPPAPPHPPP, the protein stability index came out at 0.62 ± 0.036.

Sequence TPPPPPPPLRAT had a protein stability index of 0.638 ± 0.038.

Sequence TPPRVYPLLRTS gave a protein stability index of 0.682 ± 0.016.

In the case of TPPVHLPPSSFS, the protein stability index amounted to 0.744 ± 0.0023.

TPQPPPHSTYRC showed a protein stability index of 0.702 ± 0.031.

TPRPPPSSFLSL: the protein stability index amounted to 0.679 ± 0.05.

With TPRYVGLIKINK, the protein stability index was found to be 0.676 ± 0.03.

TPSDHRRLRGSN gave a protein stability index of 0.689 ± 0.045.

In the case of TPSLPAPGPPSP, the protein stability index was determined as 0.735 ± 0.11.

TPSPHPRYRASH returned a protein stability index of 0.703 ± 0.026.

Sequence TPSPLAILSSTC had a protein stability index of 0.6888 ± 0.0047.

Consider TPWIRGRTHPGR, for which the protein stability index was determined as 0.705 ± 0.016.

Regarding TQLNTLSTINRT, the protein stability index was found to be 0.71 ± 0.11.

In turn, TQNRGLSSFRAF returned a protein stability index of 0.691 ± 0.035.

TQVGLGSFYSLG showed a protein stability index of 0.697 ± 0.079.

TRALPIVLAVGP returned a protein stability index of 0.59 ± 0.026.

With TRDTLNLMYKRL, the protein stability index was 0.703 ± 0.046.

With TRDVPVTPQWGY, the protein stability index came out at 0.671 ± 0.076.

Regarding TREITDAKVGNE, the protein stability index came to 0.7145 ± 0.0015.

As for TRERRQAAGGGT, the protein stability index was 0.665 ± 0.055.

TRGDCFAVRKAR registered a protein stability index of 0.702 ± 0.027.

Take TRLTSSGVGSVP: the protein stability index was 0.683 ± 0.1.

For the sequence TRLVRQLNNNLE, the protein stability index turned out to be 0.667 ± 0.013.

TRNRKEWKIVIL: the protein stability index was determined as 0.594 ± 0.042.

As for TRNTNYNKKIKV, the protein stability index was determined as 0.6801 ± 0.0022.

As for TRPCFSGFNSPF, the protein stability index was 0.6545 ± 0.0019.

As for TRPSPHRPSAST, the protein stability index is 0.678 ± 0.054.

Sequence TRSRAQTEAHRR gave a protein stability index of 0.669 ± 0.032.

Take TRTTTQKNNATT: the protein stability index is 0.717 ± 0.037.

As to TSHSSSGQAGKI, the protein stability index was determined as 0.73 ± 0.033.

Sequence TSIDVLKCVYIQ yielded a protein stability index of 0.5549 ± 0.0054.

TSKGLGSRSAHP had a protein stability index of 0.665 ± 0.044.

On to TSLALAFTFAIP, for which the protein stability index came out at 0.703 ± 0.051.

Take TSPPHLPASSHS: the protein stability index was 0.689 ± 0.014.

With TSQHLQNHYKKI, the protein stability index is 0.701 ± 0.0035.

These data come from the supplement of paper PMC10724198.
